Measurements as given in the Human Domainome abundance scans (Beltran et al. 2025).
± gives the uncertainty stated by the source.

B1: PDZ and LIM domain protein 2, residues 284 to 339; numbered along this chain, Q96JY6 (parent)
chain: HTCEKCSTSIANQAVRIQEGRYRHPGCYTCADCGLNLKMRGHFWVGDELYCEKHAR

Variants of: B1
Test: abundance fitness (aPCA) (normalised: wild type 0, dead -1); higher = more abundant; growth selection in yeast, the domain comes from the species named
Conditions: Homo sapiens

In order of rising abundance fitness:
1. HTCEKCSTSIANQAVRIQEGRYRHPGCYTYADCGLNLKMRGHFWVGDELYCEKHAR [C30Y]  -0.956 ± 0.12
2. HTCEKCSTSIANQAVRIQEGRYRLPGCYTCADCGLNLKMRGHFWVGDELYCEKHAR [H24L]  -0.898 ± 0.077
3. HTCEKCSTSIANQAVRIQEGRYRHPGCYTCADCGLNLKMRGHFWVGDERYCEKHAR [L49R]  -0.885 ± 0.13
4. HTCEKCSTSIANQAVRIQEGRYRHPGCYTCADFGLNLKMRGHFWVGDELYCEKHAR [C33F]  -0.876 ± 0.14
5. HTCEKCSTSIANQAVRIQEGRYRHPGCDTCADCGLNLKMRGHFWVGDELYCEKHAR [Y28D]  -0.772 ± 0.23
6. HTCEKCSTSIANQAVRIQEGRYRHPGCYTCADNGLNLKMRGHFWVGDELYCEKHAR [C33N]  -0.741 ± 0.083
7. HTCEKCSTSIANQAVRIQEGRYRHPGCYTCADHGLNLKMRGHFWVGDELYCEKHAR [C33H]  -0.709 ± 0.12
8. HTCEWCSTSIANQAVRIQEGRYRHPGCYTCADCGLNLKMRGHFWVGDELYCEKHAR [K5W]  -0.553 ± 0.18
9. HTCEKCSTSIANQAYRIQEGRYRHPGCYTCADCGLNLKMRGHFWVGDELYCEKHAR [V15Y]  -0.499 ± 0.22
10. HTCEKCSTSIANQAVRIQEGRYRNPGCYTCADCGLNLKMRGHFWVGDELYCEKHAR [H24N]  -0.345 ± 0.12
11. HYCEKCSTSIANQAVRIQEGRYRHPGCYTCADCGLNLKMRGHFWVGDELYCEKHAR [T2Y]  -0.31 ± 0.27
12. HTCEKCSTSIANQAVRIQHGRYRHPGCYTCADCGLNLKMRGHFWVGDELYCEKHAR [E19H]  -0.292 ± 0.15
13. HTCEKCSTSIANQAMRIQEGRYRHPGCYTCADCGLNLKMRGHFWVGDELYCEKHAR [V15M]  -0.283 ± 0.12
14. HTCEKCSTSIANQAVRIQEGRYRHPGCYTCADCGLNLKMRGHFWVGDEYYCEKHAR [L49Y]  -0.269 ± 0.25
15. HTCEKCSTSIANQAVRIQEGRYRSPGCYTCADCGLNLKMRGHFWVGDELYCEKHAR [H24S]  -0.264 ± 0.093
16. HTCEKCSTSIANCAVRIQEGRYRHPGCYTCADCGLNLKMRGHFWVGDELYCEKHAR [Q13C]  -0.216 ± 0.14
17. HTCEKCSTSIANQAVRIQEGRYRHPGCYTCADCGCNLKMRGHFWVGDELYCEKHAR [L35C]  -0.214 ± 0.14
18. HTCEKCSTSIAVQAVRIQEGRYRHPGCYTCADCGLNLKMRGHFWVGDELYCEKHAR [N12V]  -0.206 ± 0.057
19. HTCEKCSTSIANQAVRIQEGRYRHPGCYTCADCGLNLKMRGRFWVGDELYCEKHAR [H42R]  -0.19 ± 0.064
20. HTCEKCSTSIANQAVRIQEGRYRHPGCCTCADCGLNLKMRGHFWVGDELYCEKHAR [Y28C]  -0.187 ± 0.12
21. HTCEKCSTSIANQAVRIQEGRYRQPGCYTCADCGLNLKMRGHFWVGDELYCEKHAR [H24Q]  -0.186 ± 0.2
22. HTCEKCSTSIANQAVRIQEGRYRHPGCYTCADCGLNMKMRGHFWVGDELYCEKHAR [L37M]  -0.178 ± 0.1
23. HTCEKCSTSIANQAVRIQEGRYRHPGCYTCADCGLILKMRGHFWVGDELYCEKHAR [N36I]  -0.127 ± 0.16
24. HTCEKCSTSIANQAVRIQEGRYRHPGCYTCADCGLNLKMRGHFWVGGELYCEKHAR [D47G]  -0.11 ± 0.075
25. HTCEKCSTSIANQAVRIQEGRYRHPGCYTCADCGLNLKMRGHFWVGDECYCEKHAR [L49C]  -0.108 ± 0.066
26. HTCEKCSTSIANQAVRIQEGRYRHPGCYTCADCGLNLKMRGHFWVGDHLYCEKHAR [E48H]  -0.084 ± 0.32
27. HTCEKCSTSIANQAVRIQEGRYRHPGCYTCADCGLNLKMRGHFWVGDRLYCEKHAR [E48R]  -0.079 ± 0.08
28. HTCEKCSTSIANQAVRIQEGRYRHPGCYTCADCGLMLKMRGHFWVGDELYCEKHAR [N36M]  -0.07 ± 0.084
29. HTCEKCSTSIANFAVRIQEGRYRHPGCYTCADCGLNLKMRGHFWVGDELYCEKHAR [Q13F]  -0.049 ± 0.16
30. HTCEKCSTSIAQQAVRIQEGRYRHPGCYTCADCGLNLKMRGHFWVGDELYCEKHAR [N12Q]  -0.044 ± 0.11
31. HTCEKCSTSIANQAVRIQEGRYRHPGCYTCADCGLNLKMRGHFWVGDKLYCEKHAR [E48K]  -0.034 ± 0.12
32. HTCEKCSTSIANQAVRIQEGRYRHPGCYTCADCGLNLKMRGQFWVGDELYCEKHAR [H42Q]  -0.032 ± 0.11
33. HTCSKCSTSIANQAVRIQEGRYRHPGCYTCADCGLNLKMRGHFWVGDELYCEKHAR [E4S]  0.014 ± 0.063
34. HTCEKCSTSIANQAVEIQEGRYRHPGCYTCADCGLNLKMRGHFWVGDELYCEKHAR [R16E]  0.037 ± 0.091
35. HTCEECSTSIANQAVRIQEGRYRHPGCYTCADCGLNLKMRGHFWVGDELYCEKHAR [K5E]  0.038 ± 0.13
36. HTCELCSTSIANQAVRIQEGRYRHPGCYTCADCGLNLKMRGHFWVGDELYCEKHAR [K5L]  0.049 ± 0.12
37. HTCEKCSTSIANQAVRIQEGRYRHPGCYTCADCGGNLKMRGHFWVGDELYCEKHAR [L35G]  0.053 ± 0.081
38. HTCEVCSTSIANQAVRIQEGRYRHPGCYTCADCGLNLKMRGHFWVGDELYCEKHAR [K5V]  0.055 ± 0.074
39. HTCEKCSTSIANQAVRIQEGRYRHPGCYTCADCGNNLKMRGHFWVGDELYCEKHAR [L35N]  0.062 ± 0.14
40. HTCEKCSTSIANQAVRIQEGRYRHPGCYTCADCGLNLKMRGDFWVGDELYCEKHAR [H42D]  0.078 ± 0.076
41. HTCEKCSTSIANQAVLIQEGRYRHPGCYTCADCGLNLKMRGHFWVGDELYCEKHAR [R16L]  0.168 ± 0.06
42. HTCEKCSTSIANEAVRIQEGRYRHPGCYTCADCGLNLKMRGHFWVGDELYCEKHAR [Q13E]  0.194 ± 0.13
43. HTCEKCSTSIANQAVRIQEGRYRHPGCYTCADCHLNLKMRGHFWVGDELYCEKHAR [G34H]  0.2 ± 0.17
44. HTCEKCSTSIANQAVRIQEGRYRHPGCYTCADCGLNLKMRGHFWVGDNLYCEKHAR [E48N]  0.203 ± 0.14
45. HTCEKCSTSIAHQAVRIQEGRYRHPGCYTCADCGLNLKMRGHFWVGDELYCEKHAR [N12H]  0.219 ± 0.14
46. HTCEKCSDSIANQAVRIQEGRYRHPGCYTCADCGLNLKMRGHFWVGDELYCEKHAR [T8D]  0.232 ± 0.1
47. HTCEKCSTSIANQAVRIQEGRYRHDGCYTCADCGLNLKMRGHFWVGDELYCEKHAR [P25D]  0.323 ± 0.075
